Measured values published in PMC2422856.

Molecular target: CapAB(K55M), inactive P-loop mutant of the CapAB chimeric protein, unphosphorylated (Staphylococcus aureus)
Test: crystal structure; CapAB(K55M) at 8.5 mg/ml with 10 mM MgCl2, 20% (v/v) PEG 1000, 200 mM glycine, 0.1 M Na-Hepes pH 7.5, 18 °C; 2.6 Å

## CapAB(K55M), inactive P-loop mutant of the CapAB chimeric protein, unphosphorylated
  stoichiometry N: 8
